From the nanobody polyreactivity screen of Harvey et al. (2022)

Assay: yeast display, Sf9 membrane polyspecificity reagent, FACS + sequencing; frameworks hold sequencing errors
How it was run: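 After 36–48 hours of galactose induction, yeast (Saccharomyces cerevisiae BJ5465) displaying a synthetic nanobody library were stained at 4 °C for 1 hour with 10% biotinylated, detergent-solubilized Sf9 membrane reagent. Streptavidin microbeads enriched the stained cells before FACS sorting into low and high (top ~1%) gates on anti-HA and streptavidin fluorescence. Each clone's polyreactivity label reflects its gate of origin.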

| Sequence | polyreactivity (PSR sort gate) |
| --- | --- |
| QVQLVESGGGLVQAGGSLRLSCAASGFTLYTYAMGWYRQAPGKERELVAAISTGGGRTYYADSVKGRFTISRDNAKNTVYLQMNSLKPEDTAVYYCAADSLAKTGGTVGGDYWGQGTQVSVSS | high polyreactivity |
| QVQLVESGGGLVQAGGSLRLSCAASGRTFVRYAMGWYRQAPGKERELVAAISRTGGTTYYADSVKGRFTISRDNAKNTVYLQMNSLKPEDTAVYYCNADPFYKYGYWGQGTKVTVSS | high polyreactivity |
| QVQLVESGGGLVQAGGSLRISCAASGSTFGWYTMGWYRQAPGKERELVAAISQGGGRTRYADSVKGRFTISRDNAKNTVYLQMNSLKPEDTAVYYCAATYYHRPYISNYGYWGQGTQVTVSS | high polyreactivity |
| QVQLVESGGGLVQAGGRLRLSCADSGRTYRKYAIGWYRQAPGKEMDMVAAISWSGGSTYYANSVKGRFTISRDNAKNTVYLQMNSLKPEDTAVYYCAAVPVHTGSLYWGFTTGYDYWGQGTQVTVSS | low polyreactivity |
| QVQLVESGGGLVQAGGSLRLSCAASGSIFRRTTQGGYRQAPGKERELVAAITYRGGSTYYADSVKGRFTISRDNAKNTVYFQMHSLKPEDTAVYYCARYHWYYPVSKSDSWGQGTQVTVSS | high polyreactivity |
| QVQLVESGGGLVQAGGSLRLSCAASGFTLFFHAMGWYRQAPGKERELVATISERGDSTYYADSVKGRFTISRDNAKNTVYLQMNSLKPEDTAVYYCAAVGTYSSYGYWGQGTQVTVSS | high polyreactivity |
| QVQLVESGGRLVQAGGSLRLSCAASGSTFTVIGMGWYRQAPGKERELVASITWSGGSTYYADSVKGRFTISRDNAKNTVYLQMTSLIPEDTAVYYCAADEKLYITGYDYWGQGTQVTVSS | low polyreactivity |
| QVQLVESGGGLVQAGGSLRLSCAASGRIFSTNAMGWYLQAPGKERELVAGINSGGSTNYADSVKGRFTISRDNAKNTVYLQMNSLKPEDTAVYYCNASLPVDSWYVQYGVDYDYWGQVTQVTVSS | low polyreactivity |
| QVQLVESGGGLVQAGGSLRLSCPASGSIFDPYAMGWYRQAPGKERELVAAITASGSSTYYADSVKGRFTISRDNAKNTVYLQMNSLKPEDTAVYYCAADRAKWEYLLSWLGYDYWGQGTQVTVSS | low polyreactivity |
| QVQLVESGGGLVQAGGSLRLSCAASGRIFGWYAMGWYRQAPGKERELVAGISSSSGSTNYADSVKGRFSISRDNAKNTVYLQMNSLKPEDTAVYYCAADGGGTYYSFYYWGQGTQVTVSS | low polyreactivity |
| QVQLVESGGGLVQAGGSLRLSCAASGRTFYTYTMGWYRQAPRKEREFVAAISSSGSSTYYADSVKGRFTISRDNAKNTVYLQMNSLKPEDTAVYYCAATSYSYPGYFRYDYWGQGTQVTVSS | high polyreactivity |
| QVQLVESGGGLVQAGGSLRLSCAASGGTSIPYAMGWYRQAPGKERELVAAITRSGGRTYYADSVKGRFTISRDNAKNTVYLQMNSLKPEDTAVYYCAAAYYRWGYTVTVIKQFGYWGQGTQVTVSS | high polyreactivity |
| QVQLVESGGGLVQAGGSLRLSCAASGIIFYTYAMGWYRQAPGKEREFVAGIRWSGSSTYYADSVKGRFTISRDNAKNTVYLQMNCLNPEDTAVYYCATGQPYGPLFSMGYGYWGQVTQVTVSS | high polyreactivity |
| QVQLVESGGGLVQAGGSLRLSCAASGFIFSPYAMGWYRQAPGKERELVATITWSGGRTYYADSVKGRFTISRDNAKNTVYLQMNSLKPEDTAVYYCNADGYQPALNKDFGYWGQGTQVTVSS | low polyreactivity |
| QVQLVESGGVLVQAGGSLRLSCAASGIIFRSNVMGWYRQAPGKERELVAAISTGGGRTYYADSVKGRFTISRDNAKNTVYLQMNILKPEDTAVYYCAAETTPYQPDGFDEYYYWGQGTQVTVSS | high polyreactivity |
| QVHLVDSGGGLVQAGGSLRLSCAASGRTFGRNAMGWYRQAPGKERELVAAISLRGGRTYYADSVKGRFTISRDNAKNTVYLQMNSLKPEDTAVYYCAAYGYRDYYFWGQGTQVTVSS | high polyreactivity |
| QVQLVESGGGLVQAGGSLLLSCAASGSIFGWYVMGWYRQEPGKERELVAAISSVGSTYYADSVKGRFTISRDNAKNTVYLQMNSLKPEDTAVYYCATDSNPKWDYALDSWGQGTQVTVSS | low polyreactivity |
| QVQLVESGGGLVQAGGSLRLICAASGRIFVRNAMGWSRQAPGKERELVAAITSGGRTYYADSVKGRFTISRDNAQNTVYVQMNSLKPEDTAVYYCAARAGNASAIDVAYWGQGSQVTVSS | low polyreactivity |
| QVQHVESGGGLVQAGGSLRLSCAASGYTFCRYAMGWYRQAPGKERELVAAISQSGGRTYYADSVKGRFTISRDNAKNTVYFQMNSLKPDDTAVYYCATSSTQGDDYWGQGTQVTVSS | high polyreactivity |
| QVQLVESGGGLVQAGGSLRLSCAASGFTFDWNSMGCYRQAPGQERELVATIRWSVGSTYYADSVKGRFTISRDNAKNTVYLQMNSLKPEDTAVYYCAADSQWSYPDYPGEYAYDYWGQGTQVTVSS | low polyreactivity |
| QVQLVESGGGLVQAGGSLRLSCAASGFTFKTYAMGWYRQAPGKEREFVAAISSRGGSTYYADSVKGRFTISRDNAKNTVYLQMNSLKPEDTAVYYCATATRPRDRYSRYGYWGQGTQVTVSS | high polyreactivity |
| QVQLVESGGGLVQAGGSLRLSCAASGFIFYFNAMGWYRQAPGKERELVAAISASGGRTYYADSVKGRFTISRDNAKNTVYLQMNSLIPEDTAVYYCAADIRGYDYWGQGTQVTVSS | high polyreactivity |

| Sequence | polyreactivity (PSR sort gate) |
| --- | --- |
| QVQLVESAGGLVQAGGSLRLSCAASGSTFPTYAMGWYRQSPGKERELVAAIDWSDGSITYYADSVKGRFTISRDNAKNTVYLQMNSMKPEDTAVYYCAKDNSQYGWGYDYWGQGTQVTVSS | low polyreactivity |
| QVKHVESGGGLVQAGCILRLSCSASGSTFARYAMGWYRQSPGKERELVAGISQSGGTTYYADSVKGRFTISRDNEKNTVYLQMNSLKPEDTAVYYCAARRWVAYTLEYWGQGTQVTVSS | high polyreactivity |
| QVQLVESGGGLVQAGGSLRLICAASGFTFGYYPMGWYRQAPGKERELVAAINWSGVNTNYADSVKGRFTISRDNAKNTVYLQMNSVKPEDTAVYYCAADAGYDGYGYWGQGTQVTVSS | low polyreactivity |
| QVQLVESGGGLVQAGGILRLSCAPSGLILKYYAMGWYRQAPGKEREFVAAITRRGGITYYADSVKGRFTISRDNAKNTVYLQMNSLKPEDTAVYYCAADPKLGSLAYWRYSYPLYDYWGQGTQVTVSS | low polyreactivity |
| QVQLVESGGGLVQAGGSLRLSCAASGFTFPVYAMGWYRQAPGKEREFVAAITYIGGSTDADSVKGRFTISRDNAKNTVYLQMNSLKPEDTAVYYCAADIITEYRADYLVYLEYDYWGQGTQVTVSS | low polyreactivity |
| QVQLVESGGGLVQAGGSLRLSCAASGRIFAKNTMGWYRQAPGKERELVAAISRSGGRTYYADSVKGRFTISRDNAKNTVYLQMNSLKPEDTAVYYCSKDVKGSYAYDSWGQGTQVTVSS | high polyreactivity |
| QVQLVESGGGLVQAGGSLRLSCADSGFTLNAMGWYRHAPGKERELVAAITTGGRTYYADSVKGRFTISRDNAKNTVYLQMNSLKPEDTAVYYCGAHTYYYPVGFNYWGQGTQVTVSS | low polyreactivity |
| QVQLVESGGGLVQAGGSLRLSCAASGGTIAGYAMGWYRQAPGKARELVASISDGGSTNYADSVKGRFTISRDNAKNTVYLQMNSLKPEDTAVYYCAVQGSRTENYDWYYYWGQGTQVTVSS | low polyreactivity |
| QVQLVESGGGLVQAGGSLRISCAASGRIFSGYAMGWYRQAPGKERELVAAITSGGSTNYADSVKGRFTISRDNAKNTVYLQMNSLKPEDTAVYYCAADSREVSTTAYYYWGQGTQVTVSS | low polyreactivity |
| QVQLVESGGGLVQAGGSLRLSCAASGRTFSYYTMGWYRQAPGKERELVAAITSSGGSTYYADSVKGRFTISRDNAKNTVYLQMNSLKPEDTAVYYCAVLNYWAMDYWGQGTQVTVSS | high polyreactivity |
| QVQLVESAGRLVKAGGSLRLSCDASGSIFKGNAMGWYRQEPGKERELVAAISRTGGSTYYADSVKGRFTISRDNAKNTVYLQMNSLKPEDTAVYYCAAYSASTYDSWGQGTQVTVSS | high polyreactivity |
| QVQLVESGGGLVQAGGSLRLSCAASGLIFYVYAMGWYRQAPGKERELVATISSSGGSTYYADSVKGRFTISRDNAKNTVYLQMNSLKPEDTAVYYCAARWSHYRTGWGDTSYHYYYWGQGTQVTVSS | high polyreactivity |
| QVQLVETGGGLVQAGGSLRLSCAASGFTFAKYAMGRYRQAPGKERELVAAISSIGGSTYYADSVKGRFTISRDNAKNSVYLQMNSLKPEDSAVYFCAAELYCGYYYWGQGTQVTVYS | high polyreactivity |
| QVQLVESGAGLVQAGGSLRLTCAASGFIFGYNARGWYRPAPGKERELVAAIRYRGVSTYYADSVKGRFTISRDNAKNTFYLQMNSLKPVETAVYYCNARTRVKTTQSYDRNYYYWGQGTQVTVSS | high polyreactivity |
| QVQLVESGGGLVQAGGSLRLSCAASGYIFYAYAMGWSRQAPGKERELVAAISSGGGRTYYADSVKGRFTISRDNAKNTVYLQMNSLKPEDTAVYYCAARRRDRGEYYYWGQGTQVTVSS | high polyreactivity |
| QVQLVESGGGLVQAGGSLRLSCAASRFIFSWYAMGWYRQAPGTERELVATISSSGGRTHYADSVKGRFTISRDNAKNTVDLHMKSLKPEVTEVYYCAAHPFYYFTTVYYWGQGTQVTVSS | high polyreactivity |
| QVQLVESGGGLVQAGGSLRLSCAASGSTFKRYDMGGYRQAPGKECEFVAGISSRGSRTYYADSVTGRFTISRDNAKNSVYFKMNILKPEDSAVYYCAVSGNHVSPPYGFWGQGTQVNVSS | high polyreactivity |
| QVQLVESGGGLVQAGGSLRLSCAASGIIFHYYAMGWSRPEPGKERELVAAITSSGDRTYYADSVKGRFTISRDTAKNTVYLQMNSLKPEDTAVYYCAKDVWRWFGYWGQGTQVTVSS | high polyreactivity |
| QVQIVESGGGLVQGGGSLRLSCAASGSIFGGNAMGWYRQAPGKERELVATITVRGGSTYNADSVKGRFTISRDNAKNTVYLQMNSLKPEDTAVYYCAARGVYLLPKYDYWGQGTQVTVSS | low polyreactivity |
| QVQLVESGGGLVQAGGSLRLSCAASGRIFYGYAMGWYRQAPGKDRELVATISRSGARTHYADSVKGRFTISRDNAKNTVYLQMNSLKQEDTAVYYCAADVYLSRYEKYGYWGQGTQVTVSS | high polyreactivity |
| QVQLVESGGGLVQAGGSLRLSCDASGITQTVYAMGWYRQSPGKERELVAGIDWVGDTYADSVKGRFTISRDNAKNTVYLQMNSLKPEDTAVYYCAADNYSQGVPYDYWGQGSQVTVSS | low polyreactivity |
